Consider four molecules from PMC8464039 (Nucleic Acids Research, 2021).

The series “cryo-EM structure” deals with the molecule itself. Put plainly: cryo-EM structure.
Series [1] has as its target T1, Csy complex (crRNA-guided surveillance complex) (Pseudomonas aeruginosa, UniProt Q02ML9;Q02MM0;Q02MM1;Q02MM2 1-434;1-327;1-342;1-187).
T1 sequence 1: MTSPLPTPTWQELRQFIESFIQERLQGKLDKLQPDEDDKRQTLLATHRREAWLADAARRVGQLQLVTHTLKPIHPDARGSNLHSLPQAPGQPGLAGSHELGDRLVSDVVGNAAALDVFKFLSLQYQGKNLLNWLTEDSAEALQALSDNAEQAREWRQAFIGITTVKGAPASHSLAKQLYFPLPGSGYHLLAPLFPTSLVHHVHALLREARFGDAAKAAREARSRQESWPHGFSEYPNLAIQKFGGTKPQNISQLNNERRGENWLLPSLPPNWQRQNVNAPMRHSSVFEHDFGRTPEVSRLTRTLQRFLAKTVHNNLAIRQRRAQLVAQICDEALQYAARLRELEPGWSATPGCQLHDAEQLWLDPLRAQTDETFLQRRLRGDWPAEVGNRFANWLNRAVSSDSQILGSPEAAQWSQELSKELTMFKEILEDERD
T1 sequence 2: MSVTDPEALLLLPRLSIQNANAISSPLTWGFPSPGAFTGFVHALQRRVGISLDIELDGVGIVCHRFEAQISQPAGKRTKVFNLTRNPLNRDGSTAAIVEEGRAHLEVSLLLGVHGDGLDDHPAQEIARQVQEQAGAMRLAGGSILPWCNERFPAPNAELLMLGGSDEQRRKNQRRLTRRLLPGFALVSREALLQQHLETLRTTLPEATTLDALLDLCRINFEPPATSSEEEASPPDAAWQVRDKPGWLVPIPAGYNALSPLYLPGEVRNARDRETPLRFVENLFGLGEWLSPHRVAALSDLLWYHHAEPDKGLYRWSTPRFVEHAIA
T1 sequence 3: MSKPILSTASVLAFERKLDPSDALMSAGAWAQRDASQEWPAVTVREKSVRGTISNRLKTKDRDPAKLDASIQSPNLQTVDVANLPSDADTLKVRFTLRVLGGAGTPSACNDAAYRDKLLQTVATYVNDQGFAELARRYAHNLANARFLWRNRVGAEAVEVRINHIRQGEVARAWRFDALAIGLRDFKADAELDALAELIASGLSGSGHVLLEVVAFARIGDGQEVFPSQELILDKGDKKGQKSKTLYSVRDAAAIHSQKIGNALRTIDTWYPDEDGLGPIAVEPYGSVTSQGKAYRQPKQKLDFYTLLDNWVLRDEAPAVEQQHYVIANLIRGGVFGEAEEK
T1 sequence 4: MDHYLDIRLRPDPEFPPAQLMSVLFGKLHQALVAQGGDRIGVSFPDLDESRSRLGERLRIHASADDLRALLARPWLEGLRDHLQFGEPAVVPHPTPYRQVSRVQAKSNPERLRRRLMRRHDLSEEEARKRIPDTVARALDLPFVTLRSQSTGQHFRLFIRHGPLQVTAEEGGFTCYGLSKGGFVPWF
Put plainly: EMSA. (A gel shift assay detects complexes by their altered migration in electrophoresis.)

For a further series, the target named is T2, CsyRE3 (Pseudomonas aeruginosa, UniProt Q02ML9;Q02MM0;Q02MM1;Q02MM2 1-434;1-327;1-342;1-187, R207E;R219E;R258E).
T2 sequence 1: T1 sequence 1 with R207E, R219E, R258E
T2 sequence 2: T1 sequence 2
T2 sequence 3: T1 sequence 3
T2 sequence 4: T1 sequence 4
The experiment in a line: EMSA.

Series [2] addresses T1, Csy complex (crRNA-guided surveillance …). The experiment in a line: competition.

Where a chain is given by its changes, count along the chain named.

B1: Cas7f subunit of the Csy complex (natural protein, P. aeruginosa)
chain: T1 sequence 3
One may read the stoichiometry N as a count of units in the complex or per binding partner. On to B1, for which the “stoichiometry N” value in “cryo-EM structure” amounted to 6.

B2: dsDNANS (non-specific, 54 bp) (dsDNA)
DNA 1: GAGCGACTACGACATGAGCGCGCAGCTAAGACCGCCCGTAGATGCGTCGAGCGT
DNA 2: ACGCTCGACGCATCTACGGGCGGTCTTAGCTGCGCGCTCATGTCGTAGTCGCTC
On to B2, for which the binding result (in series [1]; with CsyRE3) was “no binding” in each case.

B3: dsDNANS unlabeled (dsDNA)
DNA 1: B2 DNA 1
DNA 2: B2 DNA 2
In the case of B3, the binding result in series [2] was “no binding”.

B4: dsDNASP (specific target, 54 bp) (dsDNA)
DNA 1: GGAAGCCATCCAGGTAGACGCGGACATCAAGCCCGCCGTGAAGGTGCAGCTGCT
DNA 2: AGCAGCTGCACCTTCACGGCGGGCTTGATGTCCGCGTCTACCTGGATGGCTTCC
As to B4, the binding result was “binds” in series [1] and “no binding” with CsyRE3.
